Experimental data published in US20240240209A1, “SYNTHESIS OF ENANTIOPURE CIS-A-IRONE FROM A RENEWABLE CARBON SOURCE” (Agency for Science, Technology and Research, priority 2021, published 2024).
Entries after “also recorded” stand apart in the source; their conditions may differ.

Assay: Cell lysate reaction of pMT enzymes with psi-ionone, irones quantified by HS-SPME-GCMS
Type: biochemical
Conditions: for irone production / methyltransferase activity towards psi-ionone (in words): cell lysate reaction, vs parent or control; for cis-α-irone content (percentage of cis-α-irone in the irone mixture): cell extracts with psi-ionone; for fold change in cis-α-irone produced: AUC vs non-mutated (=1)
Experimental: Using the structure of pMT1 in complex with the cofactor S-adenosyl-L-homocysteine (SAH) and the substrate teleocidin A1 (PDB id: 5GM2) as a template, pMT1 bound to each of the four isomers of α-irone was modelled with the aim of identifying amino acid residues that could be critical to increase cis-α-irone or decrease trans-α-irone production (FIGS. 2d and 2e). […] Site-directed mutagenesis of the 24 residues was carried out with degenerative primers. Subsequently, the mutants of each site were pooled together, and examined if the activity or product-selectivity of the pooled mutants were increased (FIG. 8). This reduced the number of screening reactions to 24, which is manageable when a high-throughput enzymatic assay is not available. […] One residue was chosen and subjected to site-saturation mutagenesis by using degenerative primers containing NNN or NNK. The plasmid library was then transformed into E. coli BL21 (DE3) cells and plated on agar plate containing autoinduction media^19. […] Subsequently, the colonies were collected and resuspended in phosphate saline buffer. Equal number of cells was taken for lysis and cell lysate reactions were carried out in capped SPME-GC vials at 28° C. for 2 days. HS-SPME-GCMS analysis was used to quantify the amount of irones produced by each pooled-colony reaction. […] 24 residues including the control Gly85 (G85m) were subjected to site-saturation mutagenesis, using pMT1 as the template. […] The amount of cis-α-irone produced was estimated based on the area under the gas chromatogram curve (AUC). The fold change is calculated by comparing the AUC of cis-α-irone produced by the mutant enzyme to that of non-mutated.
For each pMT mutant, it was transformed into BL21 and grown in autoinduction media with 5 mM lactose at 20° C. for 36 hrs. Then, cells were pelleted and concentrated 10 times by adding 1 ml of PBS. The OD600 was measured and 40*600 OD*ul cells were transferred into a new 1.5 ml tube. The cells were spun down and resuspended in 600 μl of lysis buffer (1×DNase buffer, 150 mM NaCl, 0.5% glycerol, 1 mg/ml lysozyme and 20U of DNasel). The cells were incubated for 2 hrs at 20° C. with shaking at 300 rpm. Following that, 2 cycles of freeze-thaw was done to completely lyse the cells. At the end of the 2nd thawing, the cell lysate was used to setup a 1 ml reaction in 2 ml GC vials. The reaction consisted of 50 mM Tris (pH7), 10 mM MgCl2, 60 mM NaCl, 0.2 mM SAM and 10 mg/L of psi-ionone and caryophyllene each. To this, 500 μl of cell lysate was added while the remaining 100 μl was used for SDS-PAGE to analyze the total and soluble protein expression. The reaction was incubated for 2 days at 28° C., 300 rpm prior to extraction of cis-α-irone with 500 μl hexane. From this, 20 μl of organic layer was taken into 180 μl hexane for GCMS analysis.
For the mutant pMT activity screening, the reactants and products were analyzed by head space solid phase microextraction (HS-SPME) coupled with an Agilent 5977B gas chromatography (GC) system equipped with Agilent DB-5 ms column (30 m×250 μm×0.25 μm) and mass spectrometry (MS) with high efficiency source. The reaction mixtures were carried out in SPME vials which were incubated at 60° C. for 20 mins to allow the release of volatile compounds. The absorbent fiber (50/30 μm divinylbenzol/carboxen/polydimethyl-SPME fiber, SUPELCO) was then exposed to the headspace of the vial for 20 mins. The extracted analytes were desorbed at the GC inlet at 250° C. for 1 min and injected into GC with a split ratio of 200:1. The GC oven temperature increased from 50° C. to 140° C. at a rate of 10° C./min and held at 140° C. for 10 min. Subsequently, the temperature was increased to 320° C. at a rate of 60° C./min and held at 320° C. for 2 mins.

B1: SaMT: methyltransferase from Streptomyces albireticuli, about 68% sequence identity to pMT1 (protein, listed as Streptomyces albireticuli)
chain: MPQESAQELKVTADEVGDWYDRFGDIYHETLGESVHCGLWFPPDEPHPTSMDLVDLSSRAQDRYTDYLIETLDPRPGDHVLDIGCGTGRSALRLVQQRDARVTGVAISKEQIARADRLANEHGLTDRLTFAYADAQALPYEDGTFDRAWAVESICHMDRAKALQEAWRVLRPGGDLMVLESVLTGELTAEDTAVFQVMLASNLPPTLPEFFGLVGDAGFETLELKDLSANLAMTMNVMALVCHDRKEEFTERFGAEFMEGVVQGLPKAREVVARKTRFFLVMLRKPLA
- irone production / methyltransferase activity towards psi-ionone (in words): converted psi-ionone to predominantly trans-α-irone

B2: ScMT: about 66% homologous enzyme from Streptomyces clavuligerus (protein, listed as Streptomyces clavuligerus)
chain: MPQELAGELRVTAAQVGAWYDQFGDIYHQTLGESIHCGLWFPPDEPHPARVDLVSLSSEAQDRFTDYLIKTLDPHADQHVLDIGCGTGRSALRLSQQRGAKVTGVAISKVQIEHANRLAETHDLSDRLVFEHADAMHLPYEDESFDSAWAIESLCHMDRAKALREAYRVLRPGGDFLLLESVLTNPLTEAEATSLDTMLAANTPLWLPEFFELITRAGFETLELKDLSANLAMTMNVLELVCHDRREEFTRRFGAEFTELLMAGLPEARNITARKTRFFMLLLRKPPVPAN
- irone production / methyltransferase activity towards psi-ionone (in words): not active towards psi-ionone

B3: pMT11: pMT1 with Y200F S182E L273V L180A A202L Y65F C156D T91P (protein)
chain: MPQEARTPQQQVTADEVGDWYDKFGEVYHLTLGESVHCGLWFPPDAPVPQDMELVTMSSQAQDRFTDYLIETLDPKAGQHLLDIGCGTGRPALKAARQRGIAVTGVAVSKEQIAAANRLAAGHGLTERLTFEVADAMRLPYEDESFDCAWAIESLDHMDRAKALGEAWRVLKPGGDLLVAEEVVTEELTEPETALFETLFALNVPPRLGEFFDIVSGAGFHTLSLKDLSANLAMTMNVFALGVYSRRAEFTERFGAEFVDGLLAGLGSAQETVIRKTRFFMATLRKPAV
modifications: Modified from pMT1
notes: pMT1 with Y200F S182E L273V L180A A202L Y65F C156D T91P
- irone production / methyltransferase activity towards psi-ionone (in words): improved cis-α-irone production both by the fold change and percentage

B4: P191S: pMT12 with P191S (protein)
chain: MPQEARTPQQQVTADEVGDWYDKFGEVYHLTLGESVHCGLWFPPDAPVPQDMELVTMSSQAQDRFTDYLIETLDPKAGQHLLDIGCGTGRPALKAARQRGIAVTGVAVSKEQIAAANRLAAGHGLTERLTFEVADAMRLPYEDESFDCAWAIESLDHMDRAKALGEAWRVLKPGGDLLVAEEVVTEELTESETALFETLFALNVPPRLGEFFDIVSGAGFHTLSLKDLSADLAMTMNVFALGVYSRRAEFTERFGAEFVDGLLAGLGSAQETVIRKTRFFMATLRKPAV
modifications: Modified from pMT1
- in-vitro production of cis-α-irone (in words) (single mutations vs parent (pMT7 or pMT12)): moderate increase

B5: pMT4: pMT1 with Y200F S182E L273V (protein)
chain: MPQEARTPQQQVTADEVGDWYDKFGEVYHLTLGESVHCGLWFPPDAPVPQDMELVTMSSQAQDRYTDYLIETLDPKAGQHLLDIGCGTGRTALKAARQRGIAVTGVAVSKEQIAAANRLAAGHGLTERLTFEVADAMRLPYEDESFDCAWAIESLCHMDRAKALGEAWRVLKPGGDLLVLEEVVTEELTEPETALFETLFAANVPPRLGEFFDIVSGAGFHTLSLKDLSANLAMTMNVFALGVYSRRAEFTERFGAEFVDGLLAGLGSAQETVIRKTRFFMATLRKPAV
modifications: Modified from pMT1
notes: pMT1 with Y200F S182E L273V
- cis-α-irone content (percentage of cis-α-irone in the irone mixture): ~80%
- irone production / methyltransferase activity towards psi-ionone (in words): highest cis-α-irone and lowest trans-α-irone production
- fold change in cis-α-irone produced (pMT3_L273 mutants): 1.5
- fold change in cis-α-irone produced (pMT4_L180 mutants): 1
- fold change in cis-α-irone produced (pMT4_T277 mutants): 1.0

B6: pMT13: pMT12 with Y244A S245A G267P (protein)
chain: MPQEARTPQQQVTADEVGDWYDKFGEVYHLTLGESVHCGLWFPPDAPVPQDMELVTMSSQAQDRFTDYLIETLDPKAGQHLLDIGCGTGRPALKAARQRGIAVTGVAVSKEQIAAANRLAAGHGLTERLTFEVADAMRLPYEDESFDCAWAIESLDHMDRAKALGEAWRVLKPGGDLLVAEEVVTEELTEPETALFETLFALNVPPRLGEFFDIVSGAGFHTLSLKDLSADLAMTMNVFALGVAARRAEFTERFGAEFVDGLLAGLPSAQETVIRKTRFFMATLRKPAV
modifications: Modified from pMT1
notes: pMT12 with Y244A S245A G267P
- irone production / methyltransferase activity towards psi-ionone (in words): maintained the percentage of cis-α-irone produced while further improving the absolute amount produced

B7: pMT3: pMT1 with Y200F S182E (protein)
chain: MPQEARTPQQQVTADEVGDWYDKFGEVYHLTLGESVHCGLWFPPDAPVPQDMELVTMSSQAQDRYTDYLIETLDPKAGQHLLDIGCGTGRTALKAARQRGIAVTGVAVSKEQIAAANRLAAGHGLTERLTFEVADAMRLPYEDESFDCAWAIESLCHMDRAKALGEAWRVLKPGGDLLVLEEVVTEELTEPETALFETLFAANVPPRLGEFFDIVSGAGFHTLSLKDLSANLAMTMNVFALGVYSRRAEFTERFGAEFVDGLLAGLGSAQETLIRKTRFFMATLRKPAV
modifications: Modified from pMT1
notes: pMT1 with Y200F S182E
- cis-α-irone content (percentage of cis-α-irone in the irone mixture): 74%
- irone production / methyltransferase activity towards psi-ionone (in words): significant increase in cis-α-irone was detected; also recorded: predominantly 1R5S was produced
- fold change in cis-α-irone produced (pMT2_S182 mutants): 5.4
- fold change in cis-α-irone produced (pMT3_E153 mutants): 1.0
- fold change in cis-α-irone produced (pMT3_L273 mutants): 1.0
- improvement of total turnover number (TTN) (vs pMT1, TTN = cis-α-irone produced / soluble pMT enzyme): more than 1,000 fold

B8: pMT14: pMT13 with E197R (protein)
chain: MPQEARTPQQQVTADEVGDWYDKFGEVYHLTLGESVHCGLWFPPDAPVPQDMELVTMSSQAQDRFTDYLIETLDPKAGQHLLDIGCGTGRPALKAARQRGIAVTGVAVSKEQIAAANRLAAGHGLTERLTFEVADAMRLPYEDESFDCAWAIESLDHMDRAKALGEAWRVLKPGGDLLVAEEVVTEELTEPETALFRTLFALNVPPRLGEFFDIVSGAGFHTLSLKDLSADLAMTMNVFALGVAARRAEFTERFGAEFVDGLLAGLPSAQETVIRKTRFFMATLRKPAV
modifications: Modified from pMT1
notes: pMT13 with E197R
- irone production / methyltransferase activity towards psi-ionone (in words): reduced the fold change of cis-α-irone to a similar level as pMT10
